Data on four molecules can be found in US7148053 (BASF AKTIENGESELLSCHAFT, dated 2006).

Positions of bridges follow the written chain, without caps; N, C: chain ends. No end group written: not given here. *: point of attachment. 125I = [125I]*

The target in experiment [1] is rat CCKB receptor (rat) (UniProt P30553). Description: cell-based or functional assay.
For experiment [2], the target named is yeast Gβγ (Saccharomyces cerevisiae) (UniProt P18851). As to the kind of experiment: cell-based or functional assay.
Chain of yeast Gβγ (Saccharomyces cerevisiae) (P18851 whole entry, chain 1 of 2): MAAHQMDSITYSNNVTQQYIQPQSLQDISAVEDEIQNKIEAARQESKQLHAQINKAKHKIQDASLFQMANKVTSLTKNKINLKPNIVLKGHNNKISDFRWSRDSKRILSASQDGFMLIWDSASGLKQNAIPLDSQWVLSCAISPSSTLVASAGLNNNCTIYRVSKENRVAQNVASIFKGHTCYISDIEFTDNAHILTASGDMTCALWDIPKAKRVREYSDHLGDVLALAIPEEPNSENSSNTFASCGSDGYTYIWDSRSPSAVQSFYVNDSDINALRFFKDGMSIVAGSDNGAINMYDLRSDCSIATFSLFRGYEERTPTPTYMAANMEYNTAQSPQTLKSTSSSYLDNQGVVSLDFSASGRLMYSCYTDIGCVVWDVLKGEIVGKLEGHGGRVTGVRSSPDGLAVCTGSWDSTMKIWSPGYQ
Chain of yeast Gβγ (Saccharomyces cerevisiae) (P18852 1-107, chain 2 of 2, further chain): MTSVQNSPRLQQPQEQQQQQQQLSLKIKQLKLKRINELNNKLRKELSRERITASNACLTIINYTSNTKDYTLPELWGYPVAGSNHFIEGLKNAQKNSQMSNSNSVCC
Experiment [3] has as its target human GRF receptor (human) (UniProt Q02643). As to the kind of experiment: cell-based or functional assay.
In experiment [4] the target is T1, rat SSTR2 somatostatin receptor subtype (rat, UniProt P30680 1-369).
T1 construct: whole, on cells; Tested in yeast cells or crude yeast membranes; also called somatostatin receptor subtype 2
T1 sequence (P30680 whole entry): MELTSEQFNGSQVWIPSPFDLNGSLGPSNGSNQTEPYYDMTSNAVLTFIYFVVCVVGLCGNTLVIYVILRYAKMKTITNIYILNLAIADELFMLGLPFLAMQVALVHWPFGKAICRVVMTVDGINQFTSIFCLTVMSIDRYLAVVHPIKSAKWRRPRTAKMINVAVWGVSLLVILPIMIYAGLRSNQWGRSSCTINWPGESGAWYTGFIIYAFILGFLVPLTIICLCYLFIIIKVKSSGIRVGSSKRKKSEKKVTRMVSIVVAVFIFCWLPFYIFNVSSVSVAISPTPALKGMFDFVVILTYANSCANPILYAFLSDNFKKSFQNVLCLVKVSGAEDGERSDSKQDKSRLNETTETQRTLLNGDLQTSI
Description: radioligand saturation binding, yeast membranes coexpressing Scg1/Gαi2.

Chain of human GRF receptor (human) (Q02643 23-423): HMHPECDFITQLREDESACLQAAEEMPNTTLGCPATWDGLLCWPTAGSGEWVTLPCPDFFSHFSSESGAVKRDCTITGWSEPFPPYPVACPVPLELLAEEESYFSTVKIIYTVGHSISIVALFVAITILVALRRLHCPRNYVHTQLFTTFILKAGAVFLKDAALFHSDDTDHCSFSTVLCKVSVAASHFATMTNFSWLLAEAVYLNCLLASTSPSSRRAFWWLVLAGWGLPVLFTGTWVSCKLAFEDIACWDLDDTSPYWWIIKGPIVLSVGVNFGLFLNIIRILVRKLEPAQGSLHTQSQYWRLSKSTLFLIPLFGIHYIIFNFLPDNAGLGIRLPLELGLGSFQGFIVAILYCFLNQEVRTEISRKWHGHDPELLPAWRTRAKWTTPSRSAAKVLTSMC
Chain of rat CCKB receptor (rat) (P30553 whole entry): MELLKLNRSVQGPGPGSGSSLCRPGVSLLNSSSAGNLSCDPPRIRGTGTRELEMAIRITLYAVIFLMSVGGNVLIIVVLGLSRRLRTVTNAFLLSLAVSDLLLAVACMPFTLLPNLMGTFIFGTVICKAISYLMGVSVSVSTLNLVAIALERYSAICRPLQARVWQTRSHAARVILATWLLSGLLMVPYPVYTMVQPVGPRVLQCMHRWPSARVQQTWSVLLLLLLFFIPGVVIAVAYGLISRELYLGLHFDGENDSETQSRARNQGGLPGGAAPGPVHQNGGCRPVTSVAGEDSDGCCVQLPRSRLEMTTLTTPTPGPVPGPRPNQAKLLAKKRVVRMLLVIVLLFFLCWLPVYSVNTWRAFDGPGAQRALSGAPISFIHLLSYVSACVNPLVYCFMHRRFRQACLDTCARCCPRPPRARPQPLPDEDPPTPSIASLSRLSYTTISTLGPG

“CCK-4 (from UniProt P06307 100-103) (peptide)” gave a growth response, agar plate bioassay, strains LY628 and LY631 in experiment [1] of 10 µg.

With rat Gαi2 (from UniProt P04897 2-355), the reduction of pheromone-induced FUS1-lacZ signaling, CEN plasmid in experiment [2] worked out at 16%.

“hGRF (1-29)-NH2 (from UniProt P01286 32-60) (peptide)” came in with a growth response, agar plate bioassay, strain CY990 in experiment [3] of 20 nmol.

B1: [^125I-tyr^11]-somatostatin 14 (peptide)
chain: AGCKNFFWKTY(125I)TSC
modifications: disulfide 3-14 (inferred); ends not checked
In turn, B1 had a Kd in experiment [4] of 0.6 nM.

A word on the Kd: it is the free concentration of one partner at which half of the binding sites on the other are occupied at equilibrium, for simple one-to-one binding. Higher therefore signals weaker binding.
